Key:
[1] = tested on: humans; settings: life-long exposure, daily uptake 1.6 ug acrylamide/kg; cited from earlier work
[2] = substrate: NC(=O)C[C@H](N)C(=O)O; experiment: purified protein, by the assay type; settings: other: substrate L-asparagine, pH 5.5, 37° C.

C=CC(N)=O [acrylamide]
cancer risk [1]: 7*10^−3

B1: Aspergillus niger asparaginase ASPA01, SEQ ID NO: 3 (Aspergillus niger CBS 513.88) (protein)
chain: SPLLYSRTTNETFVFTNANGLNFTQMNTTLPNVTIFATGGTIAGSDSSSTATTGYTSGAVGVLSLIDAVPSMLDVANVAGVQVANVGSEDITSDILISMSKKLNRVVCEDPTMAGAVITHGTDTLEETAFFLDATVNCGKPIVIVGAMRPSTAISADGPFNLLEAVTVAASTSARDRGAMVVMNDRIASAYYVTKTNANTMDTFKAMEMGYLGEMISNTPFFFYPPVKPTGKVAFDITNVTEIPRVDILFSYEDMHNDTLYNAISSGAQGIVIAGAGAGGVTTSFNEAIEDVINRLEIPVVQSMRTVNGEVPLSDVSSDTATHIASGYLNPQKSRILLGLLLSQGKNITEIADVFALGTDA
Km [2]: 2400 ± 300 µM | Vmax [2]: 1100 µmol/min/mg

— US8338123B2, “Food production process” (DSM IP Assets B.V., priority 2002, dated 2012)
